biological target: HLA-A*02:01 (Homo sapiens, UniProt P04439, D140Y/D185E/D98H/E176V/E277Q/G131W/G231S/I119V/I121R/I166T/I218V/L300P/L318F/N151K/N90K/P208A/P217A/Q86G/Q94H/R138H/R169H/T345S); assay: MHC binding assay (UV-ligand exchange, ELISA, peptide exchange yield); settings: binding of HLA-class I restricted peptides to HLA-A*02:01
Outline: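 Exchange yield was quantified as stabilized β2m-containing complex: monomers diluted 100-fold bound to streptavidin-coated wells, probed with HRP-conjugated anti-β2m, read at 450 nm after TMB. Complexes had been generated by UV cleavage of a photolabile ligand and replacement with the candidate peptide.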

Substance | Peptide exchange (MHC class I binding score, peptide exchange yield)
24 (SLSDGLEEV; listed as Homo sapiens) [compound 24] | ″++″ (≥20% = ++)
4 (GIMEHITKI; listed as Homo sapiens) [compound 4] | ″++++″ (≥75% = ++++)
137 (TLVLTLPTV; listed as Homo sapiens) [compound 137] | ″++++″ (≥75% = ++++)
111 (YVWGFYPAEV; listed as Homo sapiens) [compound 111] | ″+++″ (≥50% = +++)
315 (YLQDVVEQA; listed as Homo sapiens) [compound 315] | ″+++″ (≥50% = +++)
181 (LLWAGTAFQV; listed as Homo sapiens) [compound 181] | ″+++″ (≥50% = +++)
1 (SLMEPPAVLLL; listed as Homo sapiens) [compound 1] | ″+++″ (≥50% = +++)
146 (SLATAGDGLIEL; listed as Homo sapiens) [compound 146] | ″++″ (≥20% = ++)
98 (LIIDQADIYL; listed as Homo sapiens) [compound 98] | ″+++″ (≥50% = +++)
396 (ALLPDLPAL; listed as Homo sapiens) [compound 396] | ″+++″ (≥50% = +++)
101 (ILVGGGALATV; listed as Homo sapiens) [compound 101] | ″+++″ (≥50% = +++)
386 (ILFRYPLTI; listed as Homo sapiens) [compound 386] | ″+++″ (≥50% = +++)
126 (VLAYFLPEA; listed as Homo sapiens) [compound 126] | ″++++″ (≥75% = ++++)
68 (SLMELPRGLFL; listed as Homo sapiens) [compound 68] | ″++++″ (≥75% = ++++)
33 (VLLSLLEKV; listed as Homo sapiens) [compound 33] | ″++″ (≥20% = ++)

Further lines, results first:

Peptide exchange (MHC class I binding score, peptide exchange yield) | Substance
″+++″ (≥50% = +++) | 606 (ALWETEVYI; listed as Homo sapiens) [compound 606]
″+++″ (≥50% = +++) | 500 (SLMEDQVLQL; listed as Homo sapiens) [compound 500]
″+++″ (≥50% = +++) | 436 (HLAEVSAEV; listed as Homo sapiens) [compound 436]
″++++″ (≥75% = ++++) | 438 (KLLPLAGLYL; listed as Homo sapiens) [compound 438]
″+++″ (≥50% = +++) | 613 (RLLPPGAVVAV; listed as Homo sapiens) [compound 613]
″+++″ (≥50% = +++) | 442 (GLLGGGGVLGV; listed as Homo sapiens) [compound 442]
″++″ (≥20% = ++) | 574 (YLLQEPPRTV; listed as Homo sapiens) [compound 574]
″++″ (≥20% = ++) | 451 (LLLLDTVTMQV; listed as Homo sapiens) [compound 451]
″+++″ (≥50% = +++) | 582 (TLCDVILMV; listed as Homo sapiens) [compound 582]
″+++″ (≥50% = +++) | 525 (VLLEAGEGLVTI; listed as Homo sapiens) [compound 525]
″++″ (≥20% = ++) | 405 (ALYDVFLEV; listed as Homo sapiens) [compound 405]
″+++″ (≥50% = +++) | 583 (ILANDGVLLAA; listed as Homo sapiens) [compound 583]
